Where a SMILES comes first, the peptide text is derived from it. The star is where a group is joined. Cbz = O=C(OCc1ccccc1)*; CH2F = FC*
Experiments:
[1] = test system: HCT8 cells; test: MakA with 5FU, tumor cell morphology; type: cell-based, human; details: HCT8, compared to untreated control
Procedure: B) Change in tumor cell morphology in response to MakA and 5FU or MakA at different concentration in combination with 5FU (20 μM). Scale bar=30 μm
Further, the effect on tumor cell morphology was investigated. Unlike 5FU or MakA alone, the combination of MakA and 5FU caused massive changes in tumor cell morphology (FIG. 8B).

[2] = test system: advanced colorectal cancer; details: cited from earlier work
[3] = test system: colon carcinoma cells; test: Caspase inhibition and MakA-induced cell death; type: cell-based, human; details: pretreatment; Presto Blue, MTS, flow cytometry
Procedure: (§1) For cell death experiments, cells were grown on 96-well plate (1×10^4/well, Tecan Group Ltd) overnight and treated with MakA at different concentration for 48 hours at +37° C., 5% CO2. Cell death was quantified by two different biochemical methods: (1) reduction in PrestoBlue staining; and (2) reduction in MTS absorbance. Cell death is expressed as percentage (%) of untreated control cells for PrestoBlue assay or reduction in absorbance for MTS assay.
(§2) For cell death analysis, cells were treated with MakA or vehicle control for 48 h and were subjected to flow cytometry analysis for apoptotic cell death measurement using either Annexin V/Propidium iodide or Annexin V/7AAD (BD Pharmingen) staining according to manufactures instruction. Percentage of apoptotic cells was determined by BD LSRII and BD Accuri C6 flow cytometer (BD Bioscience), respectively.
To address if caspases plays an important role in MakA induced cell death, colon carcinoma cells were pretreated with zVAD-fmk, a pan caspase inhibitor; (Enzolifesciences, Cat #ALX-260-020-M001) followed by treatment with MakA.

[4] = test system: β-catenin in HCT8 and DLD1 cells; test: β-catenin signaling in colon cancer cells (western blot, fractionation, confocal); type: cell-based, human
Procedure: (§3) Colon carcinoma cells were grown on 8-well chamber slide (3×10^4/well, Millipore) overnight, followed by treatment with MakA for 6 or 24 hours and treated with either Alexa-568 labelled or unlabeled MakA (500 nM), fixed with 2% paraformaldehyde (20 min), permeabilized with Triton X (0.25%). Cells were incubated with anti-Ki67 (1:300), anti-β-catenin (1:300), anti-pAKT (1:100) primary antibodies overnight at +4° C., followed by incubation with corresponding Alexa-488 or Alex-568 conjugated secondary antibodies (1:200) for 1 hour. Finally, cells were counterstained with nuclear marker DAPI for 5 min. Slides were mounted with Fluoromount™ aqueous mounting medium (Sigma) and examined using EZC1 Eclipse laser scanning confocal microscope (Nikon), using 63×/1.4 plan Apo ns lens. Images were captured and processed using the NIS-Elements (Nikon) and ImageJ software.
To examine whether MakA affects β-catenin signaling in human colon cancer cells, HCT8 and DLD1 cells carrying mutations that inactivates APC tumor suppressor gene (Mouradov, D. et al. (2014) Cancer Res. 2014 Jun. 15; 74(12):3238-47) were used.
To address if MakA decreases the nuclear accumulation of β-catenin, cells were treated with MakA and fractionated into cytoplasmic and nuclear fractions.
As caspase-3 mediated fragmentation of β-catenin has been reported (Steinhusen, U. et al. (2000) J Biol Chem 275: 16345-16353), its role in MakA induced β-catenin fragmentation was investigated.

[5] = test system: PIP5K1α, PLCβ, caspase-3 in HCT8 cells; test: Immunoblot of phospholipid signaling proteins; type: cell-based, human; details: HCT8, MakA 500 nM
Procedure: The effects of MakA on PIP5K1α, PLCβ, actin and caspase-3 were investigated. For immunoblot analysis, HCT8 cells treated with control or MakA toxin were collected and lysed with lysis buffer containing (50 mM Tris, 100 mM NaCl, 1 mM EDTA, 1 mM DTT, 1% Triton X 100, 2% SDS with 1× protease inhibitor cocktail and 1× phosphatase inhibitor). Protein samples were resolved on SDS-PAGE and processed for immunoblotting according to standard procedures. Antisera used were anti-PIP5K1a polyclonal antiserum (1:2000), anti-PLCβ polyclonal antiserum (1:2000), anti-actin polyclonal antiserum (1:5000), and anti-caspase 3 antiserum (1:1000) (all from Cell Signaling Technology, Inc).

[6] = test system: human tumor cell lines of diverse origin (HCT8, DLD1, PC3, HTB9, Suit2, MCF7); test: Cell death assays (PrestoBlue, MTS) in tumor cell lines; type: cell-based; details: 48 hours
Procedure: as §1
(§4) However, overexpression of at least three components (makCBA) or whole operon (makDCBA) was required for induction of lethality to C. elegans (FIG. 1A). The effect of purified MakA protein was investigated on in vitro cultured human tumor cell lines of diverse origin (HCT8 and DLD1=colon cancer cell, PC3=Prostate cancer cells, HTB9=Bladder cancer cell, PC3=Prostate cancer cell, Suit2=Pancreatic cancer cell, MCF7=Breast cancer cells).

[7] = test system: tumor cell proliferation; test: Colony forming assay; type: cell-based
From the text: The effect of MakA on tumor cell proliferation was investigated.

[8] = test system: Bax, Bcl2, cytochrome c, caspase 3 in HCT8 cells; test: Western blotting of apoptosis proteins; type: cell-based, human
From the text: The regulation of apoptosis involves activation of caspases, increase in Bax/Bcl2 ratio and release of cytochrome c from mitochondria to cytoplasm (Elmore, S. (2007) Toxicol Pathol. 2007; 35(4): 495-516). The effect of MakA on expression of these proteins was investigated using western blotting.
The effect of MakA on expression of cytochrome c and caspase 3 activation was investigated.

[9] = test system: Ki67, cyclin D1, VEGF in HCT8 and DLD1 cells; test: Ki67, cyclin D1 and VEGF expression; type: cell-based, human
[10] = test system: human RBCs; test: Hemolysis of human RBCs; type: cell-based
From the text: However, overexpression of at least three components (makCBA) or whole operon (makDCBA) was required for lethality against C. elegans. (Dongre et al. (2018) Commun Biol. 2018 Jun. 7; 1:59) B) MakA causes cell death in tumor cell lines (HCT8 and DLD1=colon cancer cell, PC3=Prostate cancer cells, HTB9=Bladder cancer cell, PC3=Prostate cancer cell, Suit2=Pancreatic cancer cell, MCF7=Breast cancer cells) of diverse origin. The healthy non-cancerous cells from colon (CCD-18Co and CCD 841 CoN), prostate (PNT1A) and oral fibroblasts (PDL1) were intermediately sensitive compared to tumor cells. […] TritonX-100 (0.1%) induced RBCs hemolysis was used as a positive control. D) MakA induced dramatic changes in tumor cell morphology, unlike non-cancerous PDL1 fibroblasts that were largely unaffected. Scale bar=20 μm.

[11] = test system: C. elegans; details: MakA overexpressed in E. coli; cited from earlier work
[12] = test system: human colon carcinoma cells, HCT8; oral fibroblasts, PDL1; test: Live cell microscopy of cell morphology; type: cell-based; details: HCT8 versus PDL1
Procedure: Cells were grown in 96 well plate (1×10^4/well, Tecan Group Ltd) overnight and treated with MakA at different concentration for 48 hours at +37° C., 5% CO2. Fluorescence and bright field images were captured with fluorescence microscope (Nikon, Eclipse Ti). Images were processed using the NIS-Elements (Nikon) and ImageJ software. For live cell confocal microscopy, cells were grown on a coverslip and treated with Alexa-568 labelled MakA for 6 or 24 hours at +37° C., 5% CO2.
as §4

[13] = test system: tumor cell membrane; test: Transmission electron microscopy of membranes; type: cell-based; details: versus vehicle (Tris 20 mM)
From the text: To address if MakA accumulation at the cell surface may play an important role in tumor cell membrane perturbation, cells treated with MakA were compared to untreated cells and imaged with transmission electron microscopy (TEM). […] The mitochondrial damage was confirmed by confocal microscopy (FIG. 4B).

[14] = test system: non-transformed colon cells (CCD-18Co and CCD 841 CoN), prostate (PNT1A) and oral fibroblasts (PDL1); test: Cell death assays in non-transformed cells; type: cell-based, human; details: at the concentration that effectively killed carcinoma cells
Procedure: as §1, §4

[15] = test system: tumor cell migration; test: Tumor cell migration; type: cell-based
[16] = test system: colon carcinoma cells; test: Mitochondrial potential by DiOC6 staining, flow cytometry; type: cell-based, human
From the text: (§5) A) MakA induces concentration-dependent apoptotic cell death in HCT8 cells. B) Quantification of flow cytometry events from (A). […] Scale bar=50 μm. D) MakA induces fragmentation of tumor cell nuclei. Scale bar=10 μm E) Accumulation of Bax (green) to the mitochondria of apoptotic cells by MakA. DAPI was used as a nuclear marker. Scale bar=10 μm. F) MakA caused loss of mitochondrial potential in colon carcinoma cells as evident by loss of DiOC6 staining, quantified by flow cytometry. G) MakA causes activation of pro-apoptotic proteins including caspase 3, cytochrome C and Bax and suppression of antiapoptotic protein, Bcl2.

[17] = test system: colon carcinoma cells; test: Fluorescence and confocal microscopy of apoptosis markers; type: cell-based, human
From the text: as §5, §3

[18] = test system: HCT8 cells; test: Apoptotic cell death by flow cytometry; type: cell-based, human; details: 48 h
Procedure: as §2
Apoptotic cell death in response to MakA was investigated using flow cytometry and fluorescent microscopy.

[19] = test system: CT26 cell line; test: CT26 xenograft mice model of colon cancer; type: in vivo; details: repeated intratumor injection, 25 μg, from day 9, sacrificed day 21, versus vehicle
Procedure: (§6) A) Colon cancer was established using the rapidly proliferating CT26 cell line. From day 9, mice were treated by repeated intratumor injection of MakA (25 μg) or Vehicle (Tris 20 mM) at indicated intervals and sacrificed on day 21.
as §6, with “The therapeutic effect of MakA against colon cancer was investigated in a well-established colon cancer model.” for “A)”, “21 (FIG. 7A).” for “21.”

[20] = western blot, HCT8 and DLD1 cells

O=c1[nH]cc(F)c(=O)[nH]1 [5FU, 5-fluorouracil, reference compound]
tumor cell morphology [1]: caused increased cell size
overall response rate [2]: 10-15%

COC(=O)C[C@H](NC(=O)[C@H](C)NC(=O)[C@@H](NC(=O)OCc1ccccc1)C(C)C)C(=O)CF [zVAD-fmk, reference compound] (Cbz-Val-Ala-Asp(OMe)-CH2F)
effect of caspase inhibitor on MakA-induced cell death [3]: partially rescued the cells from MakA-induced cell death
effect of caspase inhibitor on MakA-induced β-catenin fragmentation ([4]; HCT8 and DLD1 cells): rescued both HCT8 and DLD1 cells from MakA-induced fragmentation and decrease in β-catenin

B1: MakA (protein, listed as Vibrio cholerae)
chain: MSQQVTQLNPTQQTTQSAFLATTVITAQCHAILNTQFTPPTVKPDWFDDLSKKLDSAKLVAKQWIDDLGPQVSASIPSSVINFDATFQASIDAIHELYKADPTASGKDNTTVQQASQIMTALSSQVSGIEATVKGMNKELSDWGVKMQAAHDDLVNGATNIQKTIIDLQTDIESMNNAIDNNRAAIEKLNKDLVYAQVAVGVGIFMLVAGVALTVATAGTAAAVSGGIAAVGAASIIAGGVTWGVLQNQIDDDYDSIAQEQKQKAEDQQQIIALQGLSNASSAVVSAIETSTSVLSDFETTWTVFGNELDDVVTKLNNGASMQSIIMEKVMSDAAKNEWDDAVELAKQLASAKIAIETKELAPAVKQAA
cleaved caspase-3 [5]: expression of cleaved caspase-3 was also observed
level of PIP5Kα [5]: efficiently reduce the level of PIP5Kα
level of PLC-β [5]: reduced level of PLC-β
tumor cell morphology [1]: caused rounding of the cells
cell death in tumor cells [6]: induces cell death in diverse range of tumor cells in a dose-dependent manner
tumor cell proliferation [7]: caused significant reduction in tumor cell proliferation
caspase 3 activation [8]: activation of caspase 3
expression of Bax [8]: induction in expression of pro-apoptotic protein, Bax
expression of Bcl2 [8]: decrease in expression of anti-apoptotic protein, Bcl2
expression of cytochrome c [8]: increase in cytochrome c expression
Ki67 positive cells [9]: reduction in number of Ki67 positive cells
cyclin D1 expression [9]: reduction in cyclin D1 expression
expression of VEGF [9, 20]: inhibited in both HCT8 and DLD1 cells
lysis of human RBCs [10]: failed to induce lysis of human RBCs
lethality to C. elegans [11]: not lethal to C. elegans
plasma membrane remodeling [12]: induced plasma membrane remodeling in human colon carcinoma cells, HCT8 but not in oral fibroblasts, PDL1
nuclear membrane by TEM [13]: irregular thin nuclear membrane indicating its damage
plasma membrane and mitochondria by TEM [13]: induced plasma membrane remodelling and mitochondrial damage
sensitivity of non-transformed cells to MakA [14]: largely unaffected or intermediately sensitive
tumor cell migration [15]: caused suppression of tumor cell migration in a dose dependent manner
mitochondrial membrane potential [16]: caused depolarization of the mitochondrial membrane
β-catenin expression ([4]; HCT8 and DLD1 cells): caused suppression of β-catenin expression in both HCT8 and DLD1 cells
β-catenin localization ([4]; compared to untreated control): accumulate at the plasma membrane
β-catenin expression in cytoplasmic and nuclear fractions ([4]; fractionated cells): caused reduction in β-catenin expression both in cytoplasmic and nuclear fractions
β-catenin fragmentation [4, 20]: β-catenin fragmentation was detected
Bax accumulation to mitochondria [17]: causes accumulation of active Bax to the mitochondria of an apoptotic cell
plasma membrane permeabilization (uptake of propidium iodide) [17]: causes permeabilization of tumor cell plasma membrane
nuclear staining of apoptotic cells ([17]; fluorescence and confocal microscopy): nuclear fragmentation and chromatin condensation
early and late apoptotic cell death [18]: dose-dependent increase in both early and late apoptotic cell death
tumor volume [19]: caused significant reduction in tumor volume

Reference: patent US12533393B2, “Vibrio cholerae protein for use against cancer” (priority 2019, dated 2026)
